Laboratory results taken from US20190225669A1 (ACCELERON PHARMA, published 2019).
Read-outs that look alike come from different tables or passages of the source.

Key:
BMP6 [1] = biological target: T1, BMP6 (UniProt P22004 382-513, limits assumed); experiment: Biacore SPR
T1 sequence (looked up): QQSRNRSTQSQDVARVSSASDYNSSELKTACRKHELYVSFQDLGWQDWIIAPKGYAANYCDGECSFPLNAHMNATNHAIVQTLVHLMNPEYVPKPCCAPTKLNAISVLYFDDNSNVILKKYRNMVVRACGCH
Method: (§1) Ligands were injected and allowed to flow over the captured receptor protein.

BMP5 [2] = biological target: T2, BMP5 (UniProt P22003 317-454, limits assumed); experiment: Biacore SPR
T2 sequence (looked up): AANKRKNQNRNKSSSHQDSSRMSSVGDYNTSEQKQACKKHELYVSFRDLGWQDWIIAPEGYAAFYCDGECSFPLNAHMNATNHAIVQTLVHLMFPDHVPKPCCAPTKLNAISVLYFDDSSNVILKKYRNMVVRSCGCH
Method: as §1

BMP6 [3] = biological target: T1, BMP6; experiment: Biacore SPR; remark: listed apart in the source
Method: as §1

GDF7 = biological target: T3, GDF7 (UniProt Q7Z4P5 322-450, limits assumed); experiment: Biacore SPR; kinetics indeterminate (transient)
T3 construct: also called BMP12
T3 sequence (looked up): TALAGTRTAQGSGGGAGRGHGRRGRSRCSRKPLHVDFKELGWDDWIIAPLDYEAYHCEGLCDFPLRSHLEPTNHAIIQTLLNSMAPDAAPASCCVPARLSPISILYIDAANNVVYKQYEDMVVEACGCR
Method: as §1

GDF5 [4] = biological target: T4, GDF5 (UniProt P43026 382-501); experiment: Biacore SPR; kinetics indeterminate (transient)
T4 construct: also called BMP14
T4 sequence (looked up): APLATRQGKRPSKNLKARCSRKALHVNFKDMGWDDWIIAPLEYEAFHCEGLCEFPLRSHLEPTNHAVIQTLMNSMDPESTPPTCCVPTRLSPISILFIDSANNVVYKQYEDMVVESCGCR
Method: as §1

BMP7 [5] = biological target: T5, BMP7 (UniProt P18075 293-431); experiment: Biacore SPR
T5 sequence (looked up): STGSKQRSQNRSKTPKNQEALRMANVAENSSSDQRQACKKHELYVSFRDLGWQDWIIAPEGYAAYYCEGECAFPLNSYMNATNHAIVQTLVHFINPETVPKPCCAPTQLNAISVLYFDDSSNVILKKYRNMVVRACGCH
Method: as §1

GDF6 = biological target: T6, GDF6 (UniProt Q6KF10 336-455, limits assumed); experiment: Biacore SPR
T6 construct: also called BMP13
T6 sequence (looked up): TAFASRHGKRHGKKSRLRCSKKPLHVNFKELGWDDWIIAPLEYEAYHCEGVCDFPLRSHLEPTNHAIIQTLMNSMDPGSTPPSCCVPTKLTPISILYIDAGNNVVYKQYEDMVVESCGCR
Method: as §1

GDF5 [6] = biological target: T4, GDF5; experiment: Biacore SPR
Method: as §1

BMP5 [7] = biological target: T2, BMP5; experiment: Biacore SPR; remark: listed apart in the source
Method: as §1

BMP7 [8] = biological target: T5, BMP7; experiment: Biacore SPR; remark: listed apart in the source
Method: as §1

BMP6 [9] = biological target: T1, BMP6; experiment: Biacore SPR; remark: listed apart in the source
Method: as §1

BMP5 [10] = biological target: T2, BMP5; experiment: Biacore SPR; remark: listed apart in the source
Method: as §1

BMP6 [11] = biological target: T1, BMP6; experiment: Biacore SPR; remark: listed apart in the source
Method: as §1

B1: ActRIIB-Fc homodimer (Fc fusion, UniProt Q13705 19-137, looked up, not shown: a dimerising Fc or GST)
chain: SGRGEAETRECIYYNANWELERTNQSGLERCEGEQDKRLHCYASWRNSSGTIELVKKGCWLDDFNCYDRQECVATEENPQVYFCCCEGNFCNERFTHLPEAGGPEVTYEPPPTAPTLLT
notes: extracellular domain; also called ActRIIB homodimer
B1 gave a Kd (BMP6 [1]) of 0.16 nM, a koff (BMP6 [1]) of 0.0039 s⁻¹ and a kon (BMP6 [1]) of 2.4e+07 M⁻¹ s⁻¹. It also gave a Kd (BMP5 [2]) of 2.9 nM, a koff (BMP5 [2]) of 0.075 s⁻¹ and a kon (BMP5 [2]) of 2.6e+07 M⁻¹ s⁻¹. The Kd (BMP6 [3]) was 1.1 nM, the koff (BMP6 [3]) was 0.007 s⁻¹ and the kon (BMP6 [3]) was 6.4e+06 M⁻¹ s⁻¹. For the same binder, the Kd (GDF7) was > 12 nM, the Kd (GDF5 [4]) was > 9.6 nM and the Kd (BMP7 [5]) was 1.6 nM. For the same binder, the koff (BMP7 [5]) was 0.014 s⁻¹, the kon (BMP7 [5]) was 8.8e+06 M⁻¹ s⁻¹ and the Kd (GDF6) was 39 nM. It also gave a koff (GDF6) of 0.0057 s⁻¹, a kon (GDF6) of 150000 M⁻¹ s⁻¹ and a Kd (GDF5 [6]) of 1.1 nM. It also gave a koff (GDF5 [6]) of 0.0014 s⁻¹, a kon (GDF5 [6]) of 1.2e+06 M⁻¹ s⁻¹ and a Kd (BMP5 [7]) of 9.7 nM. The koff (BMP5 [7]) was 0.037 s⁻¹, the kon (BMP5 [7]) was 3.8e+06 M⁻¹ s⁻¹ and the Kd (BMP7 [8]) was 1.6 nM. For the same binder, the koff (BMP7 [8]) was 0.014 s⁻¹, the kon (BMP7 [8]) was 8.8e+06 M⁻¹ s⁻¹ and the Kd (BMP6 [9]) was 0.19 nM. The koff (BMP6 [9]) was 0.0068 s⁻¹, the kon (BMP6 [9]) was 3.5e+07 M⁻¹ s⁻¹ and the Kd (BMP5 [10]) was 2.9 nM. The koff (BMP5 [10]) was 0.075 s⁻¹, the kon (BMP5 [10]) was 2.6e+07 M⁻¹ s⁻¹ and the Kd (BMP6 [11]) was 0.19 nM. It also gave a koff (BMP6 [11]) of 0.0068 s⁻¹ and a kon (BMP6 [11]) of 3.2e+07 M⁻¹ s⁻¹.
